Our source for the stoichiometry N and Kd values is publication PMC9136124.

The stoichiometry N is a count of units in the complex or per binding partner.

In experiment [1] the target is FakA, kinase component of fatty acid kinase (Staphylococcus aureus) (Staphylococcus aureus). The experiment in a line: SEC-SAXS; Superdex 200 10/300, 20 mM Tris, pH 7.5, 200 mM NaCl, 1% glycerol; 300 μl FakA (4 mg/ml), FakA_NL (6.2 mg/ml) or FakA_LC (6 mg/ml) loaded. For orientation: SEC sorts molecules by how far they enter the pores of the column.
Experiment [2] has as its target FakA linker region, central domain (FakA_L) (Staphylococcus aureus). Put plainly: AUC; sedimentation velocity of single constructs, c(s) model in SEDFIT, 20 mM Tris, pH 7.5, 200 mM NaCl, 5 mM DTT, 20 °C, 50,000 rpm, Rayleigh interference optics.
Experiment [3] addresses FakA C terminus, FakB substrate-binding domain (FakA_C) (Staphylococcus aureus). The experiment in a line: AUC; FakB1 mixed with each isolated FakA domain; c(s) model by the text, 'sedimentation equilibrium' by the legend of Figure 4; 20 mM Tris, pH 7.5, 200 mM NaCl, 5 mM DTT, 20 °C; apparent KD from equilibrium concentrations of duplicate experiments, single site equilibrium model.

Experiment [4] has as its target FakA_LC (FakA_L and FakA_C domains connected) (Staphylococcus aureus). The experiment in a line: SEC; analytical size exclusion chromatography on a S-75 13/300 column, 20 mM Tris, pH 7.5, 200 mM NaCl; oligomerization state estimated from a standard curve of protein standards.
The target is the same in experiment [5]. The experiment in a line: SEC-SAXS; Superdex 200 10/300, 20 mM Tris, pH 7.5, 200 mM NaCl, 1% glycerol; 300 μl FakA (4 mg/ml), FakA_NL (6.2 mg/ml) or FakA_LC (6 mg/ml) loaded.
In experiment [6] the target is FakA_NL (FakA_N and FakA_L domains connected) (Staphylococcus aureus). Put plainly: SEC; analytical size exclusion chromatography on a S-75 13/300 column, 20 mM Tris, pH 7.5, 200 mM NaCl; oligomerization state estimated from a standard curve of protein standards.
For experiment [7] the target is unchanged. Put plainly: SEC-SAXS; Superdex 200 10/300, 20 mM Tris, pH 7.5, 200 mM NaCl, 1% glycerol; 300 μl FakA (4 mg/ml), FakA_NL (6.2 mg/ml) or FakA_LC (6 mg/ml) loaded.
In experiment [8] the target is FakA_αβ bundle with helix (Staphylococcus aureus). The experiment in a line: AUC; sedimentation velocity of single constructs, c(s) model in SEDFIT, 20 mM Tris, pH 7.5, 200 mM NaCl, 5 mM DTT, 20 °C, 50,000 rpm, Rayleigh interference optics.

Turning to “FakA, kinase component of fatty acid kinase (Staphylococcus aureus) (enzyme)”, the stoichiometry N in experiment [1] turned out to be 2.

In turn, “FakA linker region, central domain (FakA_L) (domain or fragment)” yielded a stoichiometry N in experiment [2] of 2. Turning to “FakB1, fatty acid binding protein component of fatty acid kinase (Staphylococcus aureus) (from UniProt X5EH37 1-288) (natural protein)”, in experiment [3], the Kd was determined as 16 µM and the stoichiometry N came out at 1. Take “FakA_LC (FakA_L and FakA_C domains connected) (domain or fragment)”: the stoichiometry N in experiment [4] and in experiment [5] was 2 each time. On to “FakA_NL (FakA_N and FakA_L domains connected) (domain or fragment)”, for which the stoichiometry N in experiment [6] and in experiment [7] was 2 each time. For the substance “FakA_αβ bundle with helix (domain or fragment)”, the stoichiometry N in experiment [8] was 2.
